Reference: article PMC9972897 (Science immunology, 2023)

molecular target: SD1-RBD of SARS-CoV-2 S (ancestral), aa 319-591 (SARS-CoV-2, ancestral (Wuhan-Hu-1; …, UniProt P0DTC2)

Row | Binder | binding result
1 | sd1.032 (antibody, V domains shown) VH: QVQLVQSGAEVKRPGSSVKVSCKASGGTFNNYAMTWVRQAPGQGLEWMGGIIPMLGTENYAQKFQGRVTITADESTSTAHMELSSLRSEDTAVYYCARLTVPTPHSYYSYGLDAWGQGTTVTVSS VL: QSALTQPASVSGSPGQSITISCTGTSSDVGSYNLVSWFQQHAGRAPKLMIYEGNKRPSGISNRFSGSKSGNTASLTISGLQAEDEADYYCCSYAGSSTHVFGTGTKVTVL | binds
2 | sd1.033 (antibody, V domains shown) VH: QVQLVQSGAEVKKPGSSVKVSCKASGGVYSTYAVSWVRQAPGQGLEWIGGIIPMFGTANYAQNFQGRVTITADESTRTAYMEVSSLRSEDTAVYYCASPSAPTYYYDSSRYYSFDYWGQGTLVTVSS VL: EIVLTQSPGTLSLSPGERATLSCRASQSVSSNFLAWFQQKPGQPPRLLIYGASSRATGIPDRFSGSGSGTDFTLTISRLVPEDFAVYFCQQYGSSRYSFGQGTKLEIK | binds
3 | sd1.034 (antibody, V domains shown) VH: EVQLVESGGGVVQPGRSLRLSCAASGFSFSNYGMHWVRQAPGKGLEWVAVISYDGSHKSFADSVKGRFTISRDNSKNTLNLQMNSLRREDTAVYYCATDQGGSLGYWGQGTLVTVSS VL: QSALTQPASVSGSPGQSITISCTGTSGDVGGYNYVSWYQHHPGKAPKLMIYDVSNRPSGVSNRFSGSKSGNTASLTISGLQAEDEADYYCSSYTSTSTSWVFGGGTKLTVL | binds
4 | sd1.039 (antibody, V domains shown) VH: EVQLVQSGAEVKKPGESLKISCKASGYSFPTYWIGWVRQMPGKGLEWMGIIYPGDSDTRYSPSFQGQVTISADKSISTAYLQWSSLKASDTAIYYCARYGDSHIDSWGQGTLVTVSS VL: QSVLTQPRSASASLGASVTLNCTLSSGYSKYKVEWYQQRPGKGPRFLMRVGAGGIVGSKGDGIPDRFSVLGSGLNRYLIIKNIQQEDESDYHCGADHGSGSNFAYVVFGGGTKLTVL | binds
5 | sd1.047 (antibody, V domains shown) VH: EVQLVESGGGVVEPGRSLRLSCVASGFPFKNYGMHWVRQAPGKGLEWMAVISYDGRLEYYAESVQGRFTISRDTSRKTLYLQMDSLRVDDTAVYYCAKDGVMGFCSGDDCTPPFDSWGQGTLVTVSS VL: QSALTQPASVSGSPGQSITISCTGTSSDVGGYNYVSWFQQYPGKAPQLLIYEVSNRPSGVSNRFSGSKSGNTASLTISGLQAEDEADYYCSSYAGSPYVFGIGTRVTVL | binds
6 | sd1.100 (antibody, V domains shown) VH: QVQLQESGPGLVKPSQTLSLTCSVSGDSITSGNYYWSWIRQHPGKGLEWIGNIFHTGNTYYNPSLKSRVTISIDTSKNQFSLKLSSVTAADTALYYCARDHKRLEGDWFDPWGQGSLVTVSS VL: not shown | binds
7 | sd1.102 (antibody, V domains shown) VH: QVQLVQSGAEVKKPGSSVKVSCKASGGTFSSYAISWVRQAPGQGLEWMGGIIPLYGTANYAQKFQGRVTITADESTSTTYMELSSLTSEDTAVYYCVRFRGGDYYYYYGMDVWGQGTTVTVSS VL: EIVMTQSPATLSVSPGESATLSCRASQTVSTNLAWYQQKPGQAPRLLIFGASTRATGIPARFSGSGSGTEFTLSISSLQSEDFAVYYCHQYNSRRTFGQGTKLEIK | binds
8 | sd1.103 (antibody, V domains shown) VH: QVQLVQSGAEVKKPGSSMKVSCKASGGTLNNYAIIWVRQAPGQGLEWMGGIIPMFGAANYAQNFQGRVTITADESTRTAYLELSSLRSEDTAMYYCARVVIPYLGAHYYHYGVDVWGQGTTVTVSS VL: EIVLTQSPGTLSLSPGERATLSCRASQSVTSNYLAWYQQKPGQAPRLLIYGASSRAAGIPDRFNGSGSGTDFTLTISRLEPEDFAVYYCQQYGSSRYTFGQGTKLEIK | binds
9 | sd1.107 (antibody, V domains shown) VH: QVQLVQSGAEVKKPGSSVKVSCKASGGTFSSYAISWVRQAPGQGLEWMGGIIPMFGTTNYAQKFQGRVTITADESTSTAYMELSSLRSEDTAVYYCARVTHLNWRRGYEVGRISGAFDIWGQGTMVTVSS VL: not shown | binds
10 | sd1.108 (antibody, V domains shown) VH: QVQLVQSGAEVKKPGASVKVSCKASGYTFTSYYIHWVRQTPGQGLEWMGIINPRGGSTSYPQKFQGRVSMTRDTSTSTVFMELSSLRSDDTAVYYCAREHREDTAMDNQPSDSWGQGTLVTVSS VL: DIVMTQSPDSLSVSLGERATINCKSSRSVFYSSNNKSYLAWYQQKPGQPPKLLIYWASTRESGVRDRFSGSGSGTDFTLTISSLQAEDVAVYYCQQYYNTPYTFGQGTKLEIK | binds
11 | sd1.127 (antibody, V domains shown) VH: EVQLVESGGALVKPGGSLTLSCVASGFTFSHAWMTWVRQAPGKGLEWVGRIKTKTEGGTIDYAAPLRGRFTISRDDSKNTLYLRMNSLKIEDTAKYYCTTHSSPDYWGQGTLVTVSS VL: DIQMTQSPSSLSASIGDRVTITCRASQGIGNSLLWYQQKRGKVPKLLIYAASTLQSGVPSRFSGSGSGTDFTLTISSLQPEDVATYYCQRYNSAPLTFGGGTKVEIK | binds
12 | sd1.129 (antibody, V domains shown) VH: QVQLVQSGAEVKRPGSSVKVSCKASGGAFSNYAISWVRQAPGQGLEWMGGIIPIFGTTNYAQRFQGRVTISADESTGTAYMELSSLRFADTAIYYCARADAYSGSYYPSANWFDPWGQGTLVTVSS VL: EIVLTQSPATLSLSPGERATLSCRASQSVSNYLAWYQQKPGQAPRLLIYDASNRATGIPARFSGSGSGTDFTLTISSLEPEDFAVYYCQQRQNWPPGWTFGQGTKVEIK | binds
13 | sd1.132 (antibody, V domains shown) VH: QVQLVQSGTEVKKPGSSVKVSCKASGGTFSSYAISWVRQAPGQGLEWMGGIIPMFGAPNYAQKVQGRVTITADESTSTAYMELSSLRSEDTAVYYCARMEYSNSPGRGGYYFYSNGMDVWGQGTTVTVSS VL: EIVLTQSPATLSLSPGERATLSCRASQSVSTYLAWLQQKPGQAPRLLMYDASNRASGIPARFSGSGSGTEFTLTISSLEPEDFAVYYCQQRTYWPLTFGGGTKVEIK | binds
14 | sd1.150 (antibody, V domains shown) V domain 1: EVQLVESGGGVVQPGRSLRLSCAASGFTFSSHGMHWVRQAPGRGLEWVAVISFDGRNKFYVDSVKGRFTISRDNSKNTLYLHMNSLRAADTAVYYCAKDHDPDGSGSYFSNWFDAWGQGTLVTVSS V domain 2: SYELTQPPSVSVSPGQTASITCSGDKLGDKYAYWYRQKPGQSPVVVIYQDNKRPSGIPERFSGSNSGNTATLTISGTQAMDEADYYCQAWDTYSGVFGTGTQVTVL | binds
15 | sd1.151 (antibody, V domains shown) VH: EVQLVESGGGLVKPGGSLRLSCAVSGFTFSNAWMTWVRQAPGKGLEWVGRIKTKPEGGTTDYATPVKGRFTISRDDSIDTLYLQMNSLKTEDTAVYYCSTFSSPDHWGQGTLVTVSS VL: not shown | binds
16 | rbd.031 (antibody, V domains shown) VH: EVQLVESGGGVVQPGRSLRLSCAASGFTFKTYGMHWVRQAPGKGLEWVAVISYEGSNEYYAESVKGRFTISRDNSKNTLYLHMNSLRAEDTAVYYCAKGEYYYHSSTYYYLDYWGRGTLVTVSS VL: DIQMTQSPSTLSASVGDRVTITCRASQSISSWLAWYQQKPGKAPKVLIYDASSLQSGVPLRFSGSGSGTEFTLTISSLQPDDFATYYCQQYDTYWTFGQGTKVEIK | binds
17 | rbd.035 (antibody, V domains shown) VH: EVQLLESGGGLIEPGGSLRLSCAASGFPFNTFAMTWVRQPPGKGLEWVATISSRGDYTFYADFVKGRFSISRDNANNALWLDMSGLRAEDTALYYCAKGESGYDLYLYGLDLWGQGTTVTVSS VL: DIQMTQSPSSLSASVGDGVTITCRASQNINNYLSWYQKKAGKAPKLLIYGASTLHSGVPSRFSGSGSGTDFTLTISSLQPEDFASYYCQQNSPTPPWTFGQGTKVEIK | binds
18 | rbd.038 (antibody, V domains shown) VH: QVQLVQSGAEVKKPGASVKVSCKASGYTFSGYYMHWVRQAPGQGLEWVGWISPTSGGTKYAQKFQGRVTMTRDTSITTVYMELNRLRSDDTAVYYCAREPFPYCTSDICHSNYFYYYAMDVWGQGTTVTVSS VL: QSALTQPPSASGSPGQSVTISCTGSSSDLGDHNYVSWYQQHPGKAPKVMIYEVSKRPSGVPDRFSGSKSGNTASLTVSGLQAEDEADYYCSSYAGSLYVFGTGTKVTVL | binds
19 | rbd.043 (antibody, V domains shown) VH: QVQLVQSGAEVKKPGSSVKVSCKVSGGSFSNYGISWVRQAPGQGLEWMGGIIPLFGPADYAQKVQGRVTITADKSTSTAYMELRSLRSEDTAVYFCARGVEIVATIVGPLVREDHYYYYGMDVWGQGTTVTVSS VL: not shown | binds
20 | rbd.045 (antibody, V domains shown) VH: QVQLQESGPGLVKPSETLSLTCTVSGGAFRSFFWTWIRQPPGKGLEWIGNIYYSGSTNYNPSLKSRVTISQDMSENQFSLKLSSVTAADTAVYYCARSQWLRGNFDHWGQGILVTVSS VL: NFMLTQPHSVSESPGKTVTISCTATSGYIASNYVQWYQQRPGSAPTTVIYEDNQRPSGVPDRFSGSIDSSSNSASLTISGLKPEDEADYYCQSFDTAYAVFGGGTQLTVL | binds
21 | rbd.046 (antibody, V domains shown) VH: EVQLVESGGGVVQPGRSLRLSCAASGFTFSHYGMHWVRQAPGKGLEWVAVISYDGSNKYYADSVKGRFTISRDNSKSTLYLQMNSLRAEDTAVYYCAKGEWYYDIFTGYYPYWGQGTLVTVSS VL: not shown | binds
22 | rbd.048 (antibody, V domains shown) VH: EVQLVESGGGLVQPGGSLRLSCAASGFTVSSNYMTWVRQAPGKGLEWVSVIYSGGSTFYTDSVKGRFTISRDNSKNTLYLQMNSLRAEDTAVYYCARDVVYYGMDVWGQGTTVTVSS VL: DIQMTQSPSSLSASVGDRVTITCRASQSISSYLNWYQQKPGKAPKLLIYAASSLQSGVPSRFSGSGSGTDFTLTISSLQPEDFATYYCQESYSNSPYTFGQGTKLEIK | binds
23 | rbd.049 (antibody, V domains shown) VH: QLQLQESGPGLVKPSETLSLSCTVSGGSISSKSDYWGWIRQSPGKGLEWIGSIYYTGTTYYNPSLKSRVSISLDKSKNQFSLKLNSLTAADTALYYCARDPSIAVATTVYFDAWGQGTLVTVSS VL: EIVLTQSPGTLSLSPGERATLSCRASESVKSNYLAWYQQKLGQPPRLLIFGASTRATGIPDRFSGSGSGTDFTLTISRLEPEDFAVYYCQQYHTSPPRYTFGQGTKLEIK | binds
